Here are results for four molecules from article doi:10.1101/2023.08.19.553944.

Substitutions are numbered along the chain they refer to. Like-named read-outs stand apart in the source and are kept apart here.

Among the targets are PTBP2 (TnT) (UniProt Q9UKA9 1-531); GST-PTBP1 (UniProt P26599 1-557); GST-PTBP2 (UniProt Q9UKA9 1-531); hnRNP A1 (TnT) (UniProt P09651-2 1-320); GST-hnRNP A1 (UniProt P09651-2 1-320).
Assay in all cases: EMSA
In data set [1] the target is T1, 5xH-PTBP1 (UniProt P26599 1-557).
The target of data set [2] is T1, 5xH-PTBP1. The source holds these as a separate data set.

T1 sequence (P26599 whole entry): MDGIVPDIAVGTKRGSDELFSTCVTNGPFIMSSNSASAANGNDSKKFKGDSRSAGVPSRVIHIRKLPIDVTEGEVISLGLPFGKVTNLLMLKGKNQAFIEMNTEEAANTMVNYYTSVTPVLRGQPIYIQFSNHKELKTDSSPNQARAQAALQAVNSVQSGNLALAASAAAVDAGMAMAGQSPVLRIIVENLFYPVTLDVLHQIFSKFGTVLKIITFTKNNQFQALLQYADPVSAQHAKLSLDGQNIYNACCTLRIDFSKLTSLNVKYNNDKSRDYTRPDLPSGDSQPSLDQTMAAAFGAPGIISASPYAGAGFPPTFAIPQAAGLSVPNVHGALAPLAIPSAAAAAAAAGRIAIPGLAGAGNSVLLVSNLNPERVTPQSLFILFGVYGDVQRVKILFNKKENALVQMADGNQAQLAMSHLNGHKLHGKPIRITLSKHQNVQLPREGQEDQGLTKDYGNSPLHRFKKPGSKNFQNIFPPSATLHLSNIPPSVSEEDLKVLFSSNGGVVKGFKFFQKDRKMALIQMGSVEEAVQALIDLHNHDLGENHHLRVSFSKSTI
Sequence of GST-PTBP1 (P26599 whole entry): as above
Sequence of GST-PTBP2 (Q9UKA9 whole entry): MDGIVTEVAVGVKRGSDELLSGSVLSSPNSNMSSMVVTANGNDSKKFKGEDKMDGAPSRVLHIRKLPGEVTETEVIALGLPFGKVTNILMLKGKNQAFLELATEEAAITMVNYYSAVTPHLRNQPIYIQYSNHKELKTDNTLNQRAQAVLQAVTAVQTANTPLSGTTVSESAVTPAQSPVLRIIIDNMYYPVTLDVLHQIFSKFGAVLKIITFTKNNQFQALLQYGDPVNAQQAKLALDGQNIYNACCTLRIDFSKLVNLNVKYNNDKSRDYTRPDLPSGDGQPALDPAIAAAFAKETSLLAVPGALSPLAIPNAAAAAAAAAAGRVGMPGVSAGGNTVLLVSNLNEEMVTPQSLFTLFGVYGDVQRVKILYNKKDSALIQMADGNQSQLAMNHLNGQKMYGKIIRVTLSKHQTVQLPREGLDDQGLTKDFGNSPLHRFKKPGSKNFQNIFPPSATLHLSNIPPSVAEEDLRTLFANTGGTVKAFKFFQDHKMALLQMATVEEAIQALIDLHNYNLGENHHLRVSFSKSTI
Sequence of PTBP2 (TnT) (Q9UKA9 whole entry): as above

B1: U7/SPL (structured_RNA)
RNA: CAGUGUUACAGCUCUUUUAGAAUUUUUGGAGUAGGCUUUCUGGCUUUUUACCGGAAAGCCCCUCUUAUG
Turning to B1, the binding result with PTBP2 (TnT) was “no binding”; with 5xH-PTBP1 [1], “binds”; with GST-PTBP1, “binds”.

B2: U7/PU (structured_RNA)
RNA: B1 RNA with C12G, U13A, C14G, U15A, U26G, G28C, G29U
As to B2, the binding result with 5xH-PTBP1 [1] and with GST-PTBP1 was “binds” in each case.

B3: U7/2xMut (structured_RNA)
RNA: B1 RNA with C12G, U13A, C14G, U15A
On to B3, for which the figures for the binding result in the data set with GST-PTBP2 and with hnRNP A1 (TnT) were “no binding” and “binds”, respectively.

B4: U7/2xGA (structured_RNA)
RNA: B1 RNA with A19G, G20A, U26G, G28C, G29U, A30G, G31A
Regarding B4, the binding result is reported as “no binding” with GST-hnRNP A1, “no binding” with hnRNP A1 (TnT) and “binds” with 5xH-PTBP1 [2].
